This passage reports Kd results from article PMC2881539 (Analytical biochemistry, 2010).

Common to all, as to test: ELISA
One assay deals with Fzd5 CRD (UniProt Q13467). Conditions: cited from earlier work.
Another assay addresses mWnt3a-V5/6xHis (mouse, UniProt P27467 19-352).
The target in assay [1] is T1, purified hSFRP4 (R & D Systems) (human, UniProt Q6FHJ7 19-346).
T1 sequence (looked up): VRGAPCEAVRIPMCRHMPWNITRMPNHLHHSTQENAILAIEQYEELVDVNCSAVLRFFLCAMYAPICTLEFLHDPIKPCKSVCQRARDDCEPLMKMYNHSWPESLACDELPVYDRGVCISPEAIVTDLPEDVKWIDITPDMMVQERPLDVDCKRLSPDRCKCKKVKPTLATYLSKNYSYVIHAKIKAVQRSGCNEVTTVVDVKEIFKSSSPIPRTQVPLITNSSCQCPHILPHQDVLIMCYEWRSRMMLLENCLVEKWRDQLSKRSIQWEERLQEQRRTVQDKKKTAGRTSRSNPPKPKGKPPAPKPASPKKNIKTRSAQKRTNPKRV

mWnt3a-V5/6xHis, sequence (P27467 19-352): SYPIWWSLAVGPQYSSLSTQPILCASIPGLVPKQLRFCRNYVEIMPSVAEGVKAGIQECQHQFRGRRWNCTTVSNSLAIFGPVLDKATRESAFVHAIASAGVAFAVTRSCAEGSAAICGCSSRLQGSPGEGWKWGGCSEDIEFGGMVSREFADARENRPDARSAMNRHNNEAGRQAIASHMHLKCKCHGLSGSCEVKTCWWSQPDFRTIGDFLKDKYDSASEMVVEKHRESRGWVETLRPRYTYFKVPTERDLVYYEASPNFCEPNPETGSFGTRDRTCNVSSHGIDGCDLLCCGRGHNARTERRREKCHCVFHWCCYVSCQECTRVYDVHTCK

Turning to Wnt7a (from UniProt O00755), the Kd with Fzd5 CRD is 75.4 nM.

B1: hFzd5CRD-Fc IgG (Fc fusion, human, UniProt Q13467 27-150, looked up)
chain: ASKAPVCQEITVPMCRGIGYNLTHMPNQFNHDTQDEAGLEVHQFWPLVEIQCSPDLRFFLCSMYTPICLPDYHKPLPPCRSVCERAKAGCSPLMRQYGFAWPERMSCDRLPVLGRDAEVLCMDY
Consider B1, for which binding with mWnt3a-V5/6xHis was put at a Kd of 83.7 nM.

B2: rWnt7a V5/6xHis (ligand, UniProt O00755 32-349, looked up)
chain: LGASIICNKIPGLAPRQRAICQSRPDAIIVIGEGSQMGLDECQFQFRNGRWNCSALGERTVFGKELKVGSREAAFTYAIIAAGVAHAITAACTQGNLSDCGCDKEKQGQYHRDEGWKWGGCSADIRYGIGFAKVFVDAREIKQNARTLMNLHNNEAGRKILEENMKLECKCHGVSGSCTTKTCWTTLPQFRELGYVLKDKYNEAVHVEPVRASRNKRPTFLKIKKPLSYRKPMDTDLVYIEKSPNYCEEDPVTGSVGTQGRACNKTAPQASGCDLMCCGRGYNTHQYARVWQCNCKFHWCCYVKCNTCSERTEMYTCK
As to B2, binding in assay [1] was characterised by a dissociation constant (Kd) of 86.5 nM.
